Laboratory results reported in paper PMC7397868, “System-wide analyses of the fission yeast poly(A)+ RNA interactome reveal insights into organization and function of RNA–protein complexes”.

Target: T1, Cdk9;Pch1 (Schizosaccharomyces …, UniProt Q96WV9;O74627 1-591;1-342, |)
T1 sequence 1: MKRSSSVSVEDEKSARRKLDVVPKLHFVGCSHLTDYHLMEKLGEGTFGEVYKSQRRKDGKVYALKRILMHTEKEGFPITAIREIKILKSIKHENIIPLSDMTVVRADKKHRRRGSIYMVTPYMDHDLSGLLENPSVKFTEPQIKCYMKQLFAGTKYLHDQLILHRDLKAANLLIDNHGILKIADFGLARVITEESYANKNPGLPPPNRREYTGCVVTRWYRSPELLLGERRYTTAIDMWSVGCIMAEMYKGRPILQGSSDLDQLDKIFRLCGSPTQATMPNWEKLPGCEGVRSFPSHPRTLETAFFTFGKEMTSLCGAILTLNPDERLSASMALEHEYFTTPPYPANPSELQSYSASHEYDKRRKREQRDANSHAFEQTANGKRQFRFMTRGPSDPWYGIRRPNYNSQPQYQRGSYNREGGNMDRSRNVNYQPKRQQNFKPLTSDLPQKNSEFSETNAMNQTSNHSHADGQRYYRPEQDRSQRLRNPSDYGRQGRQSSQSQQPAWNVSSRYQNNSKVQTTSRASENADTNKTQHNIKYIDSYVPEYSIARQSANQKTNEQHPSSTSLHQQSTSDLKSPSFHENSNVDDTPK
T1 sequence 2: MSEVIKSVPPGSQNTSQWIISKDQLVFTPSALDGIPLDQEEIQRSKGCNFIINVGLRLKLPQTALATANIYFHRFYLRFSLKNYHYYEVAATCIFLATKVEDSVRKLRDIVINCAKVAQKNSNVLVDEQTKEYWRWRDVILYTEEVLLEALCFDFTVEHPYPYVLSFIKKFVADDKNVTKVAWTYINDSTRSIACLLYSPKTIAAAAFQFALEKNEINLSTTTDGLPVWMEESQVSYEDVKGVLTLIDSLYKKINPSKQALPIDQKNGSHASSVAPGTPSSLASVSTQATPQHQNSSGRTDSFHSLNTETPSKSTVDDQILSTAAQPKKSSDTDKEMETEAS
Test: fluorescence anisotropy; 8 nM RNA; four-parameter logistic fit with Hill slope; 20 mM HEPES 7.5, 150 mM NaCl, 0.5 mM MgCl2, 0.5 mM Mg(OAc)2, 1 mM 2-mercaptoethanol; 20 min at RT, read at 25 C
Conditions: protein: recombinant;recombinant; tags: none stated;N-terminal His-TEV, His-tag cleaved with TEV; copies: 1;1; single strand; heated 5 min at 95 C before use

AUUAGUAAAAUAUAUGCAUAAAGACCAGGC (ssRNA) [generic FAM-labeled RNA oligo]
Kd: 47 ± 1.7 nM
